Results reported in patent US20180238866A1 (University of California, published 2018).
Where no end group is shown, it is not given here.

B1: Fibrinogen γ-chain C-terminal domain that lacks residues 400-411 (γC399tr) (ligand, UniProt P02679 177-425, looked up)
chain: KDCQDIANKGAKQSGLYFIKPLKANQQFLVYCEIDGSGNGWTVFQKRLDGSVDFKKNWIQYKEGFGHLSPTGTTEFWLGNEKIHLISTQSAIPYALRVELEDWNGRTSTADYAMFKVGPEADKYRLTYAYFAGGDAGDAFDGFDFGDDPSDKFFTSHNGMQFSTWDNDNDKFEGNCAEQDGSGWWMNKCHAGHLNGVYYQGGTYSKASTPNGYDNGIIWATWKTRWYSMKKTTMKIIPFNRLTIGEGQQ
modifications: FITC-labeled in the flow cytometry assays
notes: domain: Fibrinogen γ-chain C-terminal domain that lacks residues 400-411
B2: secreted phospholipase A2 type IIA (sPLA2-IIA), wild type, recombinant (enzyme)
chain: NLVNFHRMIKLTTGKEAALSYGFYGCHCGVGGRGSPKDATDRCCVTHDCCYKRLEKRGCGTKFLSYKFSNSGSRITCAKQDSCRSQLCECDKAAATCFARNKTTYNKKYQYYSNKHCRGSTPRC
modifications: FITC-labeled in the flow cytometry binding assays of FIG. 7a-b ; FITC-labelled in the flow cytometry binding assays (FIG. 7a-b).
notes: PDB 1DCY was used for it in the docking simulation; also called WT sPLA2-IIA; sPLA-IIA
B3: rat fibronectin type III domains 8-11 (FN8-11), GST fusion protein (ligand)
chain: not shown
modifications: FITC-labeled in the flow cytometry assays
notes: domain: Fibronectin type III domains 8-11; also called RGD-containing fibronectin fragment; not shown: glutathione S-transferase (GST) fusion partner
B4: disintegrin domain of human ADAM15, GST fusion protein (ligand)
chain: not shown
modifications: FITC-labeled in the flow cytometry assays
notes: domain: disintegrin domain; also called ADAM15 disintegrin domain; not shown: glutathione S-transferase (GST) fusion partner
B5: scrambled site 2 peptide of β3 (S2-β3scr), GST fusion (peptide)
chain: HHHHHHVHDSHYSGQGAMSDNTNSPQT
modifications: also: GST fusion protein, GST not in chain
notes: Control peptide; also called scrambled S2-β3 peptide; scrambled β3 peptide; not shown: glutathione S-transferase (GST) from vector pGEX-2T

Columns and labels:
[1] = molecular target: T1, recombinant soluble integrin αvβ3 (UniProt P06756 31-992; P05106 27-718, limits assumed); test: ELISA-type: soluble αvβ3 (5 µg/ml) on immobilized γC399tr, 1 mM Ca2+, with sPLA2-IIA; bound αvβ3 detected with anti-β3 mAb AV-10
T1 construct: also called soluble αvβ3
Procedure: Remaining protein binding sites were blocked by incubating with PBS/0.1% BSA for 30 min at room temperature.

[2] = molecular target: T2, integrin αvβ3 on the cell surface of U937 cells and of K562 cells that express human integrin αvβ3 (human, UniProt P06756 31-1048; P05106 27-788); test: flow cytometry, FITC-γC399tr on U937 and αvβ3-K562 cells with sPLA2-IIA (20 µg/ml) and Cmpd21
T2 construct: whole, on cells; Two cell types carry the same human integrin; also called αvβ3 on U937; αvβ3-K562
T2 sequence (P06756 31-1048, chain 1 of 2): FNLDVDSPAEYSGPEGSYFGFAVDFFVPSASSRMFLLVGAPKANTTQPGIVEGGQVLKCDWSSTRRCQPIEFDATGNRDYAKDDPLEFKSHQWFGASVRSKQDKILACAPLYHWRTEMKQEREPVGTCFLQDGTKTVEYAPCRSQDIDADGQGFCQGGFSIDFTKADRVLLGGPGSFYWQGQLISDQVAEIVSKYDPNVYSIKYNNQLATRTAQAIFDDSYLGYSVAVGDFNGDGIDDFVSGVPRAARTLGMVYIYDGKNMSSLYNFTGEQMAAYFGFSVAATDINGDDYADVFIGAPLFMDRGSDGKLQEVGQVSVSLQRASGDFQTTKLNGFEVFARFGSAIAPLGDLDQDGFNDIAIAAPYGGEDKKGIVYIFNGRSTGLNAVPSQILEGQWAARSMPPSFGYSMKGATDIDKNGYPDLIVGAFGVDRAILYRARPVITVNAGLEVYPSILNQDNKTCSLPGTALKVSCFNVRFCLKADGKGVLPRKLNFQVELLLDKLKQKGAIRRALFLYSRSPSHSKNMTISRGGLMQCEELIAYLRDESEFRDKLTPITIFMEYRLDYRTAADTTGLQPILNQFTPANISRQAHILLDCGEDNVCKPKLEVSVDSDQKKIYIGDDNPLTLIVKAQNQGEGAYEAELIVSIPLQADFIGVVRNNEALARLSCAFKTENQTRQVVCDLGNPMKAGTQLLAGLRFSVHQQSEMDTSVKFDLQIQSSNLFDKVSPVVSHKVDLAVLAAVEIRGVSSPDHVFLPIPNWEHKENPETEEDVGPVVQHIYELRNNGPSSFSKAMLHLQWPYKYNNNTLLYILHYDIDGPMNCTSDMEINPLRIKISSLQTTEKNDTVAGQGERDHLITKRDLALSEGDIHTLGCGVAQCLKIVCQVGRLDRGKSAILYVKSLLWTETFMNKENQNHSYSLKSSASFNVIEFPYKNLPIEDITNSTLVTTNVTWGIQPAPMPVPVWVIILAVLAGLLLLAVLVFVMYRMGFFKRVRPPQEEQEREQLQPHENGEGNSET
T2 sequence (P05106 27-788, chain 2 of 2): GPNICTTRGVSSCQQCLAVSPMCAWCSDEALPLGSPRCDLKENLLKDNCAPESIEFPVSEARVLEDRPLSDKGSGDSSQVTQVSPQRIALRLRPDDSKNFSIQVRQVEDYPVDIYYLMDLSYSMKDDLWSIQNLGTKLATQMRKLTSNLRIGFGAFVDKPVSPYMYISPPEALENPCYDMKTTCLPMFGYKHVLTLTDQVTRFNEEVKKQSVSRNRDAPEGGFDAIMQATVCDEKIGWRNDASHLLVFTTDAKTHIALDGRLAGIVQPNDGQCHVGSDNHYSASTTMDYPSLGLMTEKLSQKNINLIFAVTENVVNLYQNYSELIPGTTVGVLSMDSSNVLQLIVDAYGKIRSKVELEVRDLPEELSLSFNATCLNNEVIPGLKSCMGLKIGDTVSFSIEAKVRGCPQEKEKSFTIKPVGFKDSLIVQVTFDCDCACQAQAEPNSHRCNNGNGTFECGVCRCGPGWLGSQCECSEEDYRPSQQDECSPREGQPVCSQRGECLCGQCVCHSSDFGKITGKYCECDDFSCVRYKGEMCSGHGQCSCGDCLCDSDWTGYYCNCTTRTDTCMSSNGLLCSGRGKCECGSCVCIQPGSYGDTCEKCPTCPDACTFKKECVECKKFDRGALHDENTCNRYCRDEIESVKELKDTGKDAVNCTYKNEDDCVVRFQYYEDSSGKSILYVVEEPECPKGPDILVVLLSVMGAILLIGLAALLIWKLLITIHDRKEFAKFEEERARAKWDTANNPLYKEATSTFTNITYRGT
Source text: (§1) The cells were washed with PBS/0.02% BSA and analyzed by FACSCalibur (Becton Dickinson, Mountain View, Calif.).

[3] = molecular target: T3, integrin α5β1 on K562 cells and U937 cells (UniProt P08648 42-1049; P05556 21-798, limits assumed); test: flow cytometry, FITC-sPLA2-IIA (10 µg/ml) on K562 cells
T3 construct: whole, on cells
T3 sequence (P08648 42-1049 limits assumed, chain 1 of 2): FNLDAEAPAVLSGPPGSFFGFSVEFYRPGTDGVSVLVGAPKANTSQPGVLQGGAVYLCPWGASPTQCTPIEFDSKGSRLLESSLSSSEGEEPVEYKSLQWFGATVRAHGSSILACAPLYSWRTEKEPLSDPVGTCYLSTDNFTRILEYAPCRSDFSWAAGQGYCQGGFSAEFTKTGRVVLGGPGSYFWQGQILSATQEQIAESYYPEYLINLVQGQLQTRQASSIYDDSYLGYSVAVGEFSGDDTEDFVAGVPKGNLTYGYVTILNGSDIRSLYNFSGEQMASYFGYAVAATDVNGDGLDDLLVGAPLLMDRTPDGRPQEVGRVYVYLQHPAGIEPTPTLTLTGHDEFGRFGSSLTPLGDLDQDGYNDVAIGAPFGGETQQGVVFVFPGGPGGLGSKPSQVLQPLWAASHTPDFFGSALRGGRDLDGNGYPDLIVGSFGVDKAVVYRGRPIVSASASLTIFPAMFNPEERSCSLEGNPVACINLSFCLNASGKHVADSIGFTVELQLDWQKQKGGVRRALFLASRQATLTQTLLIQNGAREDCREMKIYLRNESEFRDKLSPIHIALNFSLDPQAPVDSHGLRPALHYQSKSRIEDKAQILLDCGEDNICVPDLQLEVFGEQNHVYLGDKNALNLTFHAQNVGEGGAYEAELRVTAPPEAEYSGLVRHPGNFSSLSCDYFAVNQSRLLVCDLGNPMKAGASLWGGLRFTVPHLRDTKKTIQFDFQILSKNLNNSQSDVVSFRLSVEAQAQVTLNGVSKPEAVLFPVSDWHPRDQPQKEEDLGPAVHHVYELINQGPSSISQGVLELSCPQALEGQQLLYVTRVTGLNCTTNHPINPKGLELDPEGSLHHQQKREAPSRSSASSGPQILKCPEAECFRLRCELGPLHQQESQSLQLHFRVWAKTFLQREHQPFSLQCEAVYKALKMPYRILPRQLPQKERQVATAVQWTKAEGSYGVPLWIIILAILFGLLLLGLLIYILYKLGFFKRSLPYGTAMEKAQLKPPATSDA
T3 sequence (P05556 21-798 limits assumed, chain 2 of 2): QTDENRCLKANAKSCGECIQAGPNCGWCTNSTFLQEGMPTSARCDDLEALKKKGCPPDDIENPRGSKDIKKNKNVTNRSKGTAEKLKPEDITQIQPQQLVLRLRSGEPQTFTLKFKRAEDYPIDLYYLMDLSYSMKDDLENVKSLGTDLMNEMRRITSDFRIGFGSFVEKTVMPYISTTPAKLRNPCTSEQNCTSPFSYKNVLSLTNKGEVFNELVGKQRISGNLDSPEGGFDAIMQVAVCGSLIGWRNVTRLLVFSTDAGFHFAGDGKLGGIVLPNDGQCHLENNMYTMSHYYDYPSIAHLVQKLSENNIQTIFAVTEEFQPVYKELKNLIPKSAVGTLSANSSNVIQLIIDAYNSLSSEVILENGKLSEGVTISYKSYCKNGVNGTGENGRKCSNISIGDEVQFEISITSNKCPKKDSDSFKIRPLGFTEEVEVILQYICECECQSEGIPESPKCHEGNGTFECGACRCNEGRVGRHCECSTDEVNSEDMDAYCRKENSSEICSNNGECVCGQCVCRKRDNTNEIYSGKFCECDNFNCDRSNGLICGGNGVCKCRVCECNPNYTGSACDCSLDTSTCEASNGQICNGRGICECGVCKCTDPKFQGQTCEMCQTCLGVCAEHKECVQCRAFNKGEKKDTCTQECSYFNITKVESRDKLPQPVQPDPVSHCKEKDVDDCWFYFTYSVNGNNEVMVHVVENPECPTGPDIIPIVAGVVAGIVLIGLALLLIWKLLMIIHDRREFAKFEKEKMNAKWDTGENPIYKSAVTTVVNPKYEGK
Procedure: Bound FITC was measured using flow cytometry. Data are shown as means±SEM of MFI of three independent experiments. c. […] Data are shown as means±SEM of % adhesion of three independent experiments. d-f. […] Data are shown as means±SEM of MFI of three independent experiments. […] Data are shown as means±SEM of MFI of three independent experiments, j-l. […] Data are shown as means±SEM of MFI of three independent experiments.

control GST = molecular target: T4, control GST (UniProt P08515 1-218 = GST); test: ELISA-type: GST-tagged protein on immobilized sPLA2-IIA, anti-GST-HRP
T4 construct: Control protein
T4 sequence (P08515 whole entry): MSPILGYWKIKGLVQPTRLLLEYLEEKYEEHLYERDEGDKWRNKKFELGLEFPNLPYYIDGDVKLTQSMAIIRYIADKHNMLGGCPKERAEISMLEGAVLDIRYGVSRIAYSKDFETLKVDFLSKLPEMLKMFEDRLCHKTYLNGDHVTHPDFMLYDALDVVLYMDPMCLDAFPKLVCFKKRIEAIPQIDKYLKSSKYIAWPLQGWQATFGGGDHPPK
Procedure: Remaining protein binding sites were blocked by incubating with PBS/0.1% BSA for 30 min at room temperature. After washing with PBS, S2 peptides were added to the wells and incubated in PBS for 2 h at room temperature.

[4] = molecular target: T3, integrin α5β1 on K562 cells and U937 …; test: flow cytometry, FITC-FN8-11 on U937 and K562 cells, with sPLA2-IIA
Procedure: Bound FITC was measured using flow cytometry.
as §1

[5] = molecular target: T2, integrin αvβ3 on the cell surface of …; test: flow cytometry, FITC-labeled ADAM15 on U937 and αvβ3-K562 cells, with sPLA2-IIA (20 µg/ml)
Source text: Data are shown as means (MFI)±SEM of three independent experiments.
as §1

[6] = molecular target: B2; test: ELISA-type: GST-tagged peptide on immobilized sPLA2-IIA, anti-GST-HRP

B1
binding result [1]: binds | binding result [2]: binds

B2
binding result [3]: binds | binding result (control GST): no binding

B3
binding result [4]: binds

B4
binding result [5]: binds

B5
binding result [6]: no binding
